Assay results published in the supplement of paper PMC7877785.
± gives the uncertainty stated by the source.

Assay: self-splicing fitness, log relative to wild type (ln ratio); higher = more splicing; Tetrahymena group I intron in knt gene, E. coli kanamycin selection, DiMSum; sequences stand for … in CUCUCU…GGAGGGAAAAGUUAUCAGGCAUGCACCUGGUAGCUAGUCUUUAAACCAAUAGAUUGCAUCGGUUUAAAAGGCAAGACCGUCAAAUUGCGGGAAAGGGGUCAACAGCCGUUCAGUACCAAGUCUCAGGGGAAACUUUGAGAUGGCCUUGCAAAGGGUAUGGUAAUAAGCUGACGGACAUGGUCCUAACCACGCAGCCAAGUCCUAAGUCAACAGAUCUUCUGUUGAUAUGGAUGCAGUUCACAGACUAAAUGUCGGUCGGGGAAGAUGUAUUCUUCUCAUAAGAUAUAGUCGGACCUCUCCUUAAUGGGAGCUAGCGGAUGAAGUGAUGCAACACUGGAGCCGCUGGGAACUAAUUUGUAUGCGAAAGUAUAUUGAUUAGUUUUGGAGUACUCGUGGUCG
Procedure, shortened: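 Library with all eight P1ex-region intron nucleotides randomised, intron inside the knt kanamycin-resistance gene on pET-22b(+), in E. coli BL21(DE3). Cells grew overnight at 37°C or 30°C on LB agar with or without 25 μg/mL kanamycin (plus 100 μg/mL carbenicillin, 50 μM IPTG, 0.2% rhamnose), in six replicate transformations. Pooled colonies were amplicon-sequenced on Illumina HiSeq 2500. DiMSum fitness is the error-weighted combination of wild-type-normalised replicate fold changes, kanamycin versus none.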

Sequence	self-splicing fitness (ln) (30 °C)	self-splicing fitness (ln) (37 °C)
UAUGAGCAAUAUUACGUGCA	-2.09 ± 0.13	-2.32 ± 0.15
AAGAAGCAAUAUUACGUUUC	-3.62 ± 0.23	-3.15 ± 0.26
UAGCAGCAAUAUUACGUUCU	-1.45 ± 0.1	-0.606 ± 0.12
GUGAAGCAAUAUUACGUCGU	-0.585 ± 0.11	-0.777 ± 0.12
ACCAAGCAAUAUUACGGCGC	0.119 ± 0.092	-0.413 ± 0.11
CUAGAGCAAUAUUACGCUAA	-3 ± 0.23	-2.49 ± 0.25
AGCGAGCAAUAUUACGGCUU	-2.59 ± 0.12	-2.02 ± 0.21
CUGCAGCAAUAUUACGCUGU	-1.87 ± 0.12	-2.8 ± 0.3
UUAGAGCAAUAUUACGCUGU	-3.47 ± 0.36	-1.56 ± 0.21
GUAUAGCAAUAUUACGAGAC	-1.38 ± 0.4	-1.24 ± 0.47
CCGGAGCAAUAUUACGGGCG	-1.36 ± 0.11	-1 ± 0.15
GACCAGCAAUAUUACGUUUG	-2.55 ± 0.073	-1.42 ± 0.081
CUAAAGCAAUAUUACGUAUG	-0.125 ± 0.059	0.0627 ± 0.081
GGCUAGCAAUAUUACGUAUU	-0.862 ± 0.1	-0.777 ± 0.12
AAGUAGCAAUAUUACGAUUG	-3.24 ± 0.28	-0.999 ± 0.22
GGAUAGCAAUAUUACGGCAA	-0.818 ± 0.19	-0.178 ± 0.2
UGACAGCAAUAUUACGGAUC	-4.78 ± 0.32	-2.21 ± 0.16

Sequence	self-splicing fitness (ln) (30 °C)	self-splicing fitness (ln) (37 °C)
UUUUAGCAAUAUUACGCCAG	-2.13 ± 0.47	–
AUAUAGCAAUAUUACGCAGU	-2.86 ± 0.25	-3.1 ± 0.33
UACAAGCAAUAUUACGGAUG	-1.16 ± 0.078	-0.694 ± 0.11
GACUAGCAAUAUUACGAGAG	-3.75 ± 0.18	-2.28 ± 0.14
UGUUAGCAAUAUUACGCUCG	-0.015 ± 0.18	-0.0235 ± 0.21
UCUCAGCAAUAUUACGCACU	-0.801 ± 0.13	-0.465 ± 0.14
ACCAAGCAAUAUUACGUCGC	-3.25 ± 0.19	-1.27 ± 0.14
UGUUAGCAAUAUUACGAUAA	-0.767 ± 0.17	-0.345 ± 0.16
CACAAGCAAUAUUACGAGAG	-3.2 ± 0.12	-1.32 ± 0.085
AUGUAGCAAUAUUACGAAGA	–	-0.739 ± 0.21
GUCAAGCAAUAUUACGCAAG	-3.29 ± 0.18	-2.48 ± 0.18
AUAAAGCAAUAUUACGUUGG	-2.08 ± 0.11	-2.15 ± 0.15
UGAAAGCAAUAUUACGAACG	0.0634 ± 0.17	0.684 ± 0.2
UACCAGCAAUAUUACGGUAC	-3.72 ± 0.22	-2.04 ± 0.16
GAUUAGCAAUAUUACGUAAG	-2.02 ± 0.18	-0.715 ± 0.29
AUUAAGCAAUAUUACGGGAA	-2.09 ± 0.26	-1.43 ± 0.23
UGGCAGCAAUAUUACGAAAC	–	-1.52 ± 0.32
